Experimental data as given in paper PMC10275983.
“And” between values parts separate entries of the source, which are not always exact repeats. Identical values can stand only once.

Molecular target: S1 (Novus Biologicals NBP2-90985) (SARS-CoV-2), P0DTC2
Test: AlphaScreen or HTRF

Binder | IC50
ACMNPFFYDCETVCA (modifications not checked) [BCY16207 (E9)] | 1100 nM
ACEDNDWVYCSTCA (modifications not checked) [BCY15231 (E3)] | 310 nM and 400 nM
ACEYVGPMCYRLYCA (modifications not checked) [BCY15354 (E1)] | 360 nM and 1600 nM and 550 nM
